The values below come from patent US10513545B2, “Fusion polypeptide in which anti-inflammatory polypeptide and ferritin monomer fragment are bound and pharmaceutical composition for preventing and treating inflammatory diseases, containing same as active ingredient” (KYUNGPOOK NATIONAL UNIVERSITY INDUSTRY-ACADEMIC COOPERATION …, priority 2015, dated 2019).

pKd: −log10 of the molar value. Where two headings read alike, the source gives them in different places.

For one assay, the system named is PAR-1. Put plainly: PAR-1 cleavage assay in transfected HUVECs (ALP activity). The format is cell-based. To be noted: FIG. 13. The protocol: HUVECs at 90% confluence in 24-well plates were transiently transfected with pRc/RSV containing ALP-PAR-1-TF cDNA in antibiotic-free Opti-MEM medium using Lipofectamine (Invitrogen) according to the manufacturer's instruction. On the following day, cells were washed and incubated in serum-free medium for 5 h. Cells were then incubated for an additional hour with thrombin, TRAP, TFG, or TFMG. Conditioned medium was collected and centrifuged to remove cellular debris. Supernatant was collected, and ALP (alkaline phosphatase) activity was measured using EnzoLyte™ p-nitrophenyl phosphate alkaline phosphatase assay kit (AnaSpec, San Jose, Calif.) according to the manufacturer's instructions.

Assay [1] has as its target T1, soluble EPCR (sEPCR) (Homo sapiens, UniProt Q9UNN8).
T1 construct: 96-well flat microtiter plates were coated with soluble EPCR
T1 sequence (Q9UNN8 18-210 limits assumed): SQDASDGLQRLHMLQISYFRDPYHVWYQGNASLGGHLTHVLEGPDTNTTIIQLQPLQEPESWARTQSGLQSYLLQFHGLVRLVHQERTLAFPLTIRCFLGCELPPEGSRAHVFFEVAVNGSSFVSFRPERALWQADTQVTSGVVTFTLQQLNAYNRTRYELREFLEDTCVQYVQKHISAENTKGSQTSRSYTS
Put plainly: solid-phase ELISA for binding affinity to soluble EPCR. As to conditions: FIG. 9, read-out: Kd(app) for the interaction with sEPCR. The protocol:
9. Enzyme-Linked Immunosorbent Assays (ELISA) for Evaluating EPCR (Endothelial Protein C Receptor) Binding Affinity
To evaluate the interaction of the wild-type PC, PC-Gla peptides, TFG, and TFMG with EPCR, 96-well flat microtiter plates were coated with soluble EPCR in 20 mM carbonate-bicarbonate buffer (pH 9.6) containing 0.02% sodium azide, overnight at 4° C. After the plates were washed three times in TBS buffer (0.1 M NaCl, 0.02 M Tris-HCl, pH 7.4) containing 0.05% Tween 20, the plates were incubated with wild-type PC, PC-Gla peptides, TFG, and TFMG (7-1000 nM) diluted in the buffer for 1 h. After the plates were rinsed again, they were incubated with a goat anti-protein C polyclonal antibody (1:1000) for 1 h. Then, the plates were washed and incubated with rabbit anti-goat IgG (KPL, MD, 1:1000) for 1 h. After washing, the plates were incubated with 2,2′-azino-di(3-ethylbenzthiazoline-6-sulfonate) (ABTS; KPL, Gaithersburg, Md.). Colorimetric analysis was performed by measuring absorbance values at 405 nm.

The target of assay [2] is T1, soluble EPCR (sEPCR). To be noted: in an aqueous solution; read-out: previously reported binding affinity for PC to sEPCR; cited from earlier work.

Turning to “TRAP peptides: thrombin receptor agonist peptide TFLLRN (SEQ ID NO: 3), activates PAR-1 (Thrombin receptor agonist peptide (TRAP)) [reference compound]”, the “PAR-1 cleavage activity (ability to activate PAR-1)” value in the assay on PAR-1 was “strong similarities”.
With “wild type PC: wild-type Protein C, comparator in the EPCR binding ELISA [reference compound]”, the pKd with soluble EPCR (sEPCR) [1] is ~7.50; with soluble EPCR (sEPCR) [2], 7.54.
